The source of these data is paper PMC8965487.

This experiment concerns the target Cy5-labeled extracellular domain of human Angiotensin-Converting Enzyme 2 (ACE2) (UniProt Q9BYF1). The following applies: parent: est. 0; read off a plot.

In the case of “SARS-CoV-2 wild-type Spike S1 A222V; D614G”, the other: Log2 EC50 (WT/MT) was -0.1.

For SARS-CoV-2 wild-type Spike S1 D614G, the other: Log2 EC50 (WT/MT) was -0.05.

For “SARS-CoV-2 wild-type Spike S1 HV69-70 del; N501Y; D614G”, the other: Log2 EC50 (WT/MT) was -0.05.

Turning to “SARS-CoV-2 wild-type Spike S1 L18F; D614G”, the other: Log2 EC50 (WT/MT) stood at 0.35.

Turning to SARS-CoV-2 wild-type Spike S1 N234Q, the other: Log2 EC50 (WT/MT) was -0.05.

As to “SARS-CoV-2 wild-type Spike S1 T20N; D614G”, the other: Log2 EC50 (WT/MT) stood at 0.2.

For SARS-CoV-2 wild-type Spike S1+S2 D614G, the other: Log2 EC50 (WT/MT) amounted to 0.45.
